Experimental findings from the nanobody polyreactivity screen of Harvey et al. (2022) are described below.

This series can be described thus: yeast display, Sf9 membrane polyspecificity reagent, FACS + sequencing; frameworks hold sequencing errors. A digest of the protocol: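 After 36–48 hours of galactose induction, yeast (Saccharomyces cerevisiae BJ5465) displaying a synthetic nanobody library were stained at 4 °C for 1 hour with 10% biotinylated, detergent-solubilized Sf9 membrane reagent. Streptavidin microbeads enriched the stained cells before FACS sorting into low and high (top ~1%) gates on anti-HA and streptavidin fluorescence. Each clone's polyreactivity label reflects its gate of origin.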
As to “QVQLVESGGGLVQAGGSLRLSCAASGPIFYRYAMGWYRQAPGKERELVAAISRGGRTYYADSVKGRFTISRDNAKNTVYLQMNRLKPEDTAVYYCATTYSLGSWGYDYWGQGTQVTVSS”, the “polyreactivity (PSR sort gate)” value is “high polyreactivity”. For “QVQLVESGGGLVQAGGSLRLSCAASGPIVAYNAMGWYRQAPGKERELVAAISYSGGSTYYADSVKGRFTISRDNAKNTVYLQMNSLKPEDTAVYYCNAVYRYRTYRYDYWGQGTQVTVSS” the value was “high polyreactivity”; for “QVQLVESGGGLVQAGGSLRLSCAASGPTFDYYAMGWYRQAPGKERELVAAISYSGGNSYYADSVKGRFTISRDNAKNTVYLQMNSLKPEDTAVYYWAANPAARDGRKTGYFCGQGTQVTVSS”, “high polyreactivity”. Turning to “QVQLVESGGGLVQAGGSLRLSCAASGPTFGVNAMGWYRQAPGKERELVAVISSTGSTNYSDSVKGRFTISRDNAKYTVYLQMNSLKPEDTAVYYCAVGPNSVGNRSYGFDYWGQGTQVTVSS”, the “polyreactivity (PSR sort gate)” value is “low polyreactivity”.

With “QVQLVESGGGLVQAGGSLRLSCAASGPTFQIYAMGSYRQAPGNERELDAAIRWRGGTTYYADSVKGRFTISRDNAKNTVYLQMNSLTPEDTAVYYCAADYYWSPYYVYQFDYWGQGTQVTVSS”, the “polyreactivity (PSR sort gate)” value is recorded as “low polyreactivity”. With “QVQLVESGGGLVQAGGSLRLSCAASGPTFWVYAMGWNRQAPGKERELVAAISRSGVSTYYADSVKGRFTISRDNAKNTVYLQMNSLKPEDTAVYYCAAPLIYTPLKYHYWGQGTQVTVSS”, the “polyreactivity (PSR sort gate)” value is “low polyreactivity”. In the case of “QVQLVESGGGLVQAGGSLRLSCAASGPTNAMGWYRQAPGKERELVAAITKSGGSTYYADSVKGRFTISRDNAKNTVYLLMNSLKPEDTAVYYCALILRHTAYYYWGQGTQVTVSS”, the “polyreactivity (PSR sort gate)” value is “high polyreactivity”. As for “QVQLVESGGGLVQAGGSLRLSCAASGQIFSRYAMGWSRQAPGNERELVAAITWSGGRTYYADSVKGRFTISRDNAKYTVYLQMNSLKAEDTAVYYCAATRYPLPEYYWGQGTQGTVSS”, the “polyreactivity (PSR sort gate)” value is “high polyreactivity”.

On to “QVQLVESGGGLVQAGGSLRLSCAASGQKFEYNAMVWYRQAPRKERELVAVITYTYYADSVKGRFTISRDNAKNTVYLLMNCLKPEATAVYYCAVLYSEEILRNDNGVRFDYWGQGTQVTVSS”, for which the “polyreactivity (PSR sort gate)” value is listed as “low polyreactivity”.

On to “QVQLVESGGGLVQAGGSLRLSCAASGQTIAAYVMGWYRQAPGKERELVARISRSGGSTYYADSVKGRFTISRDNAKNTVYLQMNSLKPEDTAVYYCAAARPYKTSLPGAPYDYWGQGTQVTVSS”, for which the “polyreactivity (PSR sort gate)” value is listed as “low polyreactivity”.

Regarding “QVQLVESGGGLVQAGGSLRLSCAASGRIFAAYAMGWYRQAPGKEREFVAAIRLSGGSTYYADSVKGRFTISRDNAKNTVYLQMNSLKPEDTAVYYCAARYPGVARFYYWGQGTQLTVSS”, the “polyreactivity (PSR sort gate)” value is on record as “high polyreactivity”. For “QVQLVESGGGLVQAGGSLRLSCAASGRIFAAYAMGWYRQAPGKERELVAGISRGGRTYYADSVKGRFTISRDNAKNTVYLQMNSLKPEDTAVYYCNKAPSWWDVRVPFDYWGQGTQVTVSS” the value was “low polyreactivity”; for “QVQLVESGGGLVQAGGSLRLSCAASGRIFAAYAMGWYRQAPGKERELVDAISSTGGTTYYADSVKGRFTISRDNAKNTVYLQMNSLKPEDTAVYYCATTVIVTKGSWHYSYDYWGQGTQVTVSS”, “low polyreactivity”.

As for “QVQLVESGGGLVQAGGSLRLSCAASGRIFAENAMGWYRQAPGKERELVAAITDGGGSTYYADSVKGRFTISRDNAKNTVYLQMNSLKPEDTAVYYCNAYRYHLGVDFDYWGQGTQVTVSS”, the “polyreactivity (PSR sort gate)” value was “low polyreactivity”. To “QVQLVESGGGLVQAGGSLRLSCAASGRIFAFNAMGWYRQAPGKERELVAAITGRGGRTYYADSVKGRFTISRDNAKNTVYLQMNSLKPEDTAVYYCAAQRYINYDYWGQGTQVTVSS” belongs “high polyreactivity”. To “QVQLVESGGGLVQAGGSLRLSCAASGRIFAFYAMGWYRQAPGKERQLVAVISKSGGTTYYADSVKGRFTISRDNAKNTVYLQMNSLKPEDTAVYYCNKRVFYRHGYSYNYWGQGTQVTVSS” belongs “high polyreactivity”. As for “QVQLVESGGGLVQAGGSLRLSCAASGRIFAFYAMGWYRQAPGKVREFVAAITKSGGSTYYADSVKGRFTISRDNAKNTVYLQMNSLKPEDTAVYYCAADYWYPTTYYLYDYWGQGTQVTVSS”, the “polyreactivity (PSR sort gate)” value is listed as “low polyreactivity”. To “QVQLVESGGGLVQAGGSLRLSCAASGRIFAFYARGSSRQAPGKERQLVAVISKSGGTTYYADSVKGRFTISRDNAKNTVYLQMNSLKPEDTAVYYCNKRVFYRHGYSYNYWGQGTQVTVSS” belongs “high polyreactivity”.

As to “QVQLVESGGGLVQAGGSLRLSCAASGRIFAGYALGWYRPAPGKERELVATSTRGGSTNYADSVKRPFTISRDNAKNTVYLQMNSLKPEDTAVYYCAAPYSSYKVRPYDYWGQGTQVTVSS”, the “polyreactivity (PSR sort gate)” value was “low polyreactivity”. To “QVQLVESGGGLVQAGGSLRLSCAASGRIFAHYAMGWYRQAPGKERELVADITDGGSTYYADSVKGRFTISRDNAKNTVYLQMNSLKPEDTAVYYCATRRGPWPSEYDSWGQGTQVTVSS” belongs “low polyreactivity”. Turning to “QVQLVESGGGLVQAGGSLRLSCAASGRIFAKNVMGWYRQGPGKEWELVAAISRSGGSTYYADSVKGRFSISRDNAKNTVYLQMNSLKPEDTAVSYCGAYYGPDSARYYGGYEYWGQGTQVTVSS”, the “polyreactivity (PSR sort gate)” value is reported as “high polyreactivity”. For “QVQLVESGGGLVQAGGSLRLSCAASGRIFALNAMVWYRQAPGKERELVAAITWGGGSTYYADSVKGRFTISRDNAKNTVYLQMNSLKPEDTAVYYCAADVPSRVYTVISVEVEYWGQGTQVTVSS” the value was “low polyreactivity”. To “QVQLVESGGGLVQAGGSLRLSCAASGRIFANYARGWYRQAPGKERELVAAITASGGSTYYADSVKGRFTISRVNAKNTVYLQMNSLKPEDTAGYYCAKGYRLYTMYSWGQGTQVTVSS” belongs “high polyreactivity”; to “QVQLVESGGGLVQAGGSLRLSCAASGRIFAPYAMGWYRQAPGKEREFVATITHSGGRTYYADSVKGRFTISRDNAKNNVYLQMNSLKPEHTAVYYCAAGYGYNRLYYGVDYWGQGTQVTVSS”, “low polyreactivity”.

Regarding “QVQLVESGGGLVQAGGSLRLSCAASGRIFAPYAMGWYRQAPGKERELVAAITRGGITNYADSVKGRFTISRDNAKNTVYLQMNSLKPEDSAVYYCETVVNRRGFYQYFYWGQGTQVTVSS”, the “polyreactivity (PSR sort gate)” value was “high polyreactivity”.

Take “QVQLVESGGGLVQAGGSLRLSCAASGRIFAPYAMGWYRQAPGKEWQLVAAIRTSGGRTYYADSVKGRFTISRDNAKNTVYLQMNSLKPEDSAVYYCAPLAWSTGRTTTVYDYWGLGTQVTVSS”: the “polyreactivity (PSR sort gate)” value is on record as “high polyreactivity”. For “QVQLVESGGGLVQAGGSLRLSCAASGRIFARNVMGWYRQAPGKERELVAGISRSGGTTYYADSVKGRFTISRDNAKNTVYLQMNSLKPEDTAVYYCAAYYFLENDYWGPGTQVTVSS” the value was “high polyreactivity”; for “QVQLVESGGGLVQAGGSLRLSCAASGRIFARYAMGWYRQAPGKERELVAAISFRGGSTYYADSVKGRFTISRDNAKNTVYLQMNSLKPEDTAVYYCAARFGGWDRGLDYWGQGTQVTVSS”, “high polyreactivity”. For “QVQLVESGGGLVQAGGSLRLSCAASGRIFARYAMGWYRQAPGKERELVAAISFRGGSTYYADSVKGRFTISRDNAKNTVYLQMNSQKPEDTAVYYCNGRYGRGGYDYWGQGTQVTVSS”, the “polyreactivity (PSR sort gate)” value was “high polyreactivity”. For “QVQLVESGGGLVQAGGSLRLSCAASGRIFARYAMGWYRQAPGKERELVAAISFRGGSTYYADSVKGRFTISRDNAQNTVYLPMNSLKPEDTAVYYCNARYGRGGYDYWGQGTQVSVSS” the value was “high polyreactivity”.
